US20200181274A1

Molecular target: CD123 (interleukin-3 receptor alpha) on CD123-positive human AML cells (KG-1a, Kasumi-3, AML patient blasts) (human) (UniProt P26951)
Experiment: cell-based or functional assay

Sequence of UniProt P26951 (P26951 19-378): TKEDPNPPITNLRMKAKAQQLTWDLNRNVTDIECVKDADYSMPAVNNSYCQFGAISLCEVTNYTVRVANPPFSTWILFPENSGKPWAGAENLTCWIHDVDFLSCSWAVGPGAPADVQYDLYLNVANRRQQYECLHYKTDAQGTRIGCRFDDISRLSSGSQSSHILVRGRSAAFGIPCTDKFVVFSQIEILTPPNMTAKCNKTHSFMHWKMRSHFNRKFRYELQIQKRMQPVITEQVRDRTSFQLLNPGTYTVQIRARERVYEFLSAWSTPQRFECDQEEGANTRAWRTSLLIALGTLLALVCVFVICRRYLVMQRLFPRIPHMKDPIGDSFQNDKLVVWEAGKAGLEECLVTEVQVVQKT

For “XmAb14045 bispecific anti-CD123 x anti-CD3 Fab-scFv-Fc antibody (bispecific antibody)”, the T cell-dependent cytotoxicity (RTCC) against CD123+ KG-1a cells with human PBMC as effectors, EC50 was 0.28 ng/mL, the T cell-dependent cytotoxicity (RTCC) against CD123+ Kasumi-3 cells with human PBMC as effectors, EC50 was 0.01 ng/mL and the apoptosis (annexin-V positivity) of CD123-expressing KG-1a cells with AML subject-derived PBMC, 48 hours was 50%. The depletion of putative blast cell population in PBMC of 6 AML subjects, 48 hours was 20 to 90% and the reduction of putative leukemic blast number in AML PBMC, 9 or 90 ng/mL, 48 hours was 80%.
